Test results published in patent publication US20230220042A1 (SHANGHAI JIAO TONG UNIVERSITY SCHOOL OF MEDICINE, published 2023).
Residue numbers refer to the chain shown, from its start. Numbers in names are those of the source.

T1: Biotin-FcγRIIB (human, UniProt P31994 43-217, limits assumed, biotin-labelled)
T1 construct: Bought, biotin-labelled; used at 1 µg/ml for staining and sorting; also called human FcγRIIB; CD32b
T1 sequence (looked up): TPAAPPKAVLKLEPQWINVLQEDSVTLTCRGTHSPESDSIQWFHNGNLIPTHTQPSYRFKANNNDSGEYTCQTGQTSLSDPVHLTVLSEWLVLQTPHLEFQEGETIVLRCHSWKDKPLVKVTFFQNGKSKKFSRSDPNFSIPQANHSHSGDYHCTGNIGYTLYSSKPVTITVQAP

B1: human IgG2 anti-mouse CD40 surface displayed antibody, Fc mutant P271G/T299S (antibody, name in EU numbering)
light chain (with the P2A rest): DTVLTQSPALAVSPGERVTISCRASDSVSTLMHWYQQKPGQQPKLLIYLASHLESGVPARFSGSGSGTDFTLTIDPVEADDTATYYCQQSWNDPWTFGGGTKLELKRTVAAPSVFIFPPSDEQLKSGTASVVCLLNNFYPREAKVQWKVDNALQSGNSQESVTEQDSKDSTYSLSSTLTLSKADYEKHKVYACEVTHQGLSSPVTKSFNRGECGSGATNFSLLKQAGDVEENPG
heavy chain: EVQLVESDGGLVQPGRSLKLPCAASGFTFSDYYMAWVRQAPTKGLEWVASISYDGSSTYYRDSVKGRFTISRDNAKSTLYLQMDSLRSEDTATYYCGRHSSYFDYWGQGVMVTVSSASTKGPSVFPLAPCSRSTSESTAALGCLVKDYFPEPVTVSWNSGALTSGVHTFPAVLQSSGLYSLSSVVTVPSSNFGTQTYTCNVDHKPSNTKVDKTVERKCCVECPPCPAPPVAGPSVFLFPPKPKDTLMISRTPEVTCVVVDVSHEDGEVQFNWYVDGVEVHNAKTKPREEQFNSSFRVVSVLTVVHQDWLNGKEYKCKVSNKGLPAPIEKTISKTKGQPREPQVYTLPPSREEMTKNQVSLTCLVKGFYPSDIAVEWESNGQPENNYKTTPPMLDSDGSFFLYSKLTVDKSRWQQGNVFSCSVMHEALHNHYTQKSLSLSPGKLEPPPSTVSNMATVAVLVVLGAAIVTGAVVAFVMKMRRRNTGGKGGDYALAPGSQTSDLSLPDCKVMVHDPHSLA
notes: as m1; positions are Eu numbers; copies: 2 + 2
B2: human IgG2 anti-mouse CD40 surface displayed antibody, Fc mutant P271G/T299M (antibody, name in EU numbering)
light chain (with the P2A rest): B1 light chain (with the P2A rest)
heavy chain: B1 heavy chain with S294M
notes: as for B1
B3: human IgG2 anti-mouse CD40 surface displayed antibody, Fc mutant P271G/T299W (antibody, name in EU numbering)
light chain (with the P2A rest): B1 light chain (with the P2A rest)
heavy chain: B1 heavy chain with S294W
notes: as for B1
B4: human IgG2 anti-mouse CD40 surface displayed antibody, Fc mutant P271G/P331T (antibody, name in EU numbering)
light chain (with the P2A rest): B1 light chain (with the P2A rest)
heavy chain: B1 heavy chain with S294T, P326T
notes: as for B1
B5: human IgG2 anti-mouse CD40 surface displayed antibody, Fc mutant P271G/S298E (antibody, name in EU numbering)
light chain (with the P2A rest): B1 light chain (with the P2A rest)
heavy chain: B1 heavy chain with S293E, S294T
notes: as for B1
B6: human IgG2 anti-mouse CD40 surface displayed antibody, Fc mutant V266A/P271G (antibody, name in EU numbering)
light chain (with the P2A rest): B1 light chain (with the P2A rest)
heavy chain: B1 heavy chain with V261A, S294T
notes: as for B1
B7: human IgG2 anti-mouse CD40 surface displayed antibody, Fc mutant P271G/T299A (antibody, name in EU numbering)
light chain (with the P2A rest): B1 light chain (with the P2A rest)
heavy chain: B1 heavy chain with S294A
notes: as for B1
B8: human IgG2 anti-mouse CD40 surface displayed antibody, Fc mutant S267M/P271G (antibody, name in EU numbering)
light chain (with the P2A rest): B1 light chain (with the P2A rest)
heavy chain: B1 heavy chain with S262M, S294T
notes: as for B1
B9: human IgG2 anti-mouse CD40 surface displayed antibody, Fc mutant P271G/S298L (antibody, name in EU numbering)
light chain (with the P2A rest): B1 light chain (with the P2A rest)
heavy chain: B1 heavy chain with S293L, S294T
notes: as for B1
B10: human IgG2 anti-mouse CD40 surface displayed antibody, Fc mutant P271G/S298G (antibody, name in EU numbering)
light chain (with the P2A rest): B1 light chain (with the P2A rest)
heavy chain: B1 heavy chain with S293G, S294T
notes: as for B1
B11: human IgG2 anti-mouse CD40 surface displayed antibody, Fc mutant S267A/P271G (antibody, name in EU numbering)
light chain (with the P2A rest): B1 light chain (with the P2A rest)
heavy chain: B1 heavy chain with S262A, S294T
notes: as for B1
B12: human IgG2 anti-mouse CD40 surface displayed antibody, Fc mutant P271G/S298D (antibody, name in EU numbering)
light chain (with the P2A rest): B1 light chain (with the P2A rest)
heavy chain: B1 heavy chain with S293D, S294T
notes: as for B1
B13: human IgG2 anti-mouse CD40 surface displayed antibody, Fc mutant P271G/S298K (antibody, name in EU numbering)
light chain (with the P2A rest): B1 light chain (with the P2A rest)
heavy chain: B1 heavy chain with S293K, S294T
notes: as for B1
B14: human IgG2 anti-mouse CD40 surface displayed antibody, Fc mutant H268S (antibody, name in EU numbering)
light chain (with the P2A rest): B1 light chain (with the P2A rest)
heavy chain: B1 heavy chain with H263S, G266P, S294T
notes: as for B1
B15: human IgG2 anti-mouse CD40 surface displayed antibody, Fc mutant L328V (antibody, name in EU numbering)
light chain (with the P2A rest): B1 light chain (with the P2A rest)
heavy chain: B1 heavy chain with G266P, S294T, L323V
notes: as for B1
B16: human IgG2 anti-mouse CD40 surface displayed antibody, Fc mutant L328G (antibody, name in EU numbering)
light chain (with the P2A rest): B1 light chain (with the P2A rest)
heavy chain: B1 heavy chain with G266P, S294T, L323G
notes: as for B1
B17: human IgG2 anti-mouse CD40 surface displayed antibody, Fc mutant L328R (antibody, name in EU numbering)
light chain (with the P2A rest): B1 light chain (with the P2A rest)
heavy chain: B1 heavy chain with G266P, S294T, L323R
notes: as for B1

Target: T1, Biotin-FcγRIIB
Assay: FACS sorting of displayed Fc library on biotin-FcγRIIB, NGS; reference P271G

Binder	Increased factor 2 c Site 1 (combined/point mutation)	Increased factor 2 c Site 2 (combined/point mutation)
B1	3.4	–
B2	1.3	–
B3	2.6	–
B4	9.1	–
B5	84.2	–
B6	–	3.2
B7	1.8	–
B8	–	1.6
B9	53.2	–
B10	2.8	–
B11	–	1.9
B12	1.9	–
B13	2.9	–

Target: T1, Biotin-FcγRIIB
Assay: FACS sorting of displayed Fc library on biotin-FcγRIIB, NGS

Binder	Enrichment factor (after/before sorting)	Increased factor a (enrichment factor/wild-type enrichment factor)
B1	12	16
B2	4.74	6.33
B3	9.23	12.3
B4	32.3	43.2
B5	298	398
B6	8.63	15
B7	6.28	8.39
B8	4.31	7.52
B9	188	252
B10	9.73	13
B11	5.27	9.19
B12	6.78	9.06
B13	10.2	13.6

Target: T1, Biotin-FcγRIIB
Assay: magnetic sorting on biotin-FcγRIIB with unlabelled activating FcγRs, NGS; LibraryMix #3
Protocol: 3T3 cells were collected by trypsin digestion, and a single cell suspension was prepared. […] The cells were incubated for 15 minutes on ice and then washed twice with MACS buffer and re-suspended in 100 μl MACS buffer. Twenty-five μl anti-Biotin magnetic beads were added, and the cells were incubated for 15 minutes on ice and then washed once with MACS buffer and re-suspended to 500 μl, and added to the LS column put in the magnetic field. The effluent was collected, washed with 3 mL of MACS buffer and collected; The LS column was then removed out of the magnetic field, and 5 mL of MACS buffer was used to rapidly elute the remaining cells from the sorting column to collect positive cells, which are the high I/A ratio cells.

Binder	Enrichment factor (percentage after sorting/percentage before sorting)	Increased factor (mutation enrichment factor/wild-type enrichment factor)	Percentage after sorting/unbinding percentage	Percentage before sorting/unbinding percentage
B14	7.85	6.95	–	–
B15	2.31	2.04	25.4	11
B16	3.01	2.67	–	–
B17	5.3	4.69	30.8	5.82
